Data as given in a protein production outcome set (Wang et al. 2014).

Assay: label from the status in PepcDB records

| Sequence | protein production |
| --- | --- |
| MGERSDSRLAAMRTDELNIDVVLVQRLVAGQFPRWAGLGVEAVDSGGTSNAMYRLGADLVVRLPRRAGAEGDVAKEHRWLPWLAPRLPVAVPVPLGQGLPAGNYPFRWSVYRWLDGATPDVGHLVAPGLLAEDLAGFIDALHRVDPAGGPDSYRSEHLAVRDTVTREAIEELRGVVDADAARAVWETALRAPVWAGPPVWIHADLQPGNVLVDRGRLGAVIDFGCLGLGDPAVDLIVAWYVLPGDVREAFRAAVAADDASWARGRGWALSIALVELRYYRDTNPVMAGHARRVIREVLDGRER | failed |
| MGEVWTWIISFLILITLLGLIVYQLISLADLEFDYINPYDSASRINFVVLPESILQGFLCVFYLVTGHWFMALLCVPYLYYNFHLYSRKQHLIDVTEIFNLLDWEKKKRLFKLAYIILTLFLTIFWLIYSTLDDYED | failed |
| MGFFSRDIQTMEDLLLHGLRDIYYAEQQITKALPKMIEQATNRDLSQGLTSHLEETQKQIERLDQVFKKLGQKPSGVNCPAIDGLIKEADETAGEIADKTVLDAAIVANAQAVEHYEIARYGTLIAWAEELGHDDIVRFLTTNLNEEKAANTKLNTVALRKGVNRKAAS | not failed |
| MGFIGSGSIGGTIARLAVAAGHQVVLSNSRGPGSLADTVAELGPRASAATSEEAAAAGDIVVVTVPVTAFPDLPAAPLAGKTVIDTCNYGPERDGHIPELDGTSLTSSELLLRYVPGAMLVKGFNNIYFKHLLSLARPAGATDRSYLPIAGDLAPAKAAATEFIDSIGYGVVDAGLLADSWRQATGTPVWGTPYGPPSNEMGRPTGPGAIRAALATATR | failed |
| MGFIVFCLIAYFVISHLSNKKDVSGNKANSNCPYCNAAFYLTENGDFNCSNCGRLFKYRDGIVYRQDERLPIVVELACTLFTILCKADGVVTKDEVSITKELLEKNFGLEDKDMKMAIDILNKSKSKPYTKTIINDLNNIFNNYDFSKTDAEDYKELILRCAMIIAFCDDGEPSNNQNKILDDIVSIFNISATKYTNLLNYFRDNCIEKNKNDYYEILGVSEGASKEEIRAAFRKLSKLYHPDRYSSKDLPPEIIKEFEEKLAKIIEAYEALK | failed |
| MGFLQRISLMITSLIILHTIPSTTSISITPDAPTMILIDSICVNTKNMYYCEQSIISKLGNPHAEIKTIADIAAFNAVYLITSAGNYIRDKFIPIAENPLVKNQLVLCLATYRAVQKLLEGAYLADRRGDYSDMRHYQSSVLGMLDNCKTDFDYMVRTNWGVRLMINISLLATRQLPAQ | failed |
| MGFPKLETERLQLRELTLLDAETMFHYFSKESVIRYFGMDSFENIEQAKTTIQTFKNRYEEGSVFRWGIEKKGTGQLIGTCGFHLINHHHKRAEIGYELDDTYWGQGYASEALQAILTYGFETLQLIRIAAVVYVENKASQKLLSKAGFQEEGLLRKHMIQNGVAHDTILYSLLKEEWKK | failed |
| MGGAVLAQPPGPTPTDGVPLRSSQPAVQVEPAPTTATAAPIERLFPKLTGRVVDTAQLLTPSAQVYLAQMLERLEQTTTDQVVVATVPSLGGHSIEEFGLQLGRHWGIGRKDKNNGVLLLVAKDDRKVRIEVGYGLEGRLNDIVAHFIIDGSIIPYFKDDLYSSGIIAGATSIVSVLSSTDRPMLVYRSVEKNWYQDIEWMWWFERLFYLVFVGVPLFGFLTQWRSGDDSPVVASGDSARRETRAERDTGSSSSAFDWFDSSSSSSSSSSDSFSGGGGSFGGGGASGSW | failed |
| MGGCPVRKRRRNGSKEGNHHSTQPKRNKRNPIFQDSQDTEFSWSDNERSSSRINIPERASGPEGNLNQIVTEPDANFPQFLHEGLSKPVYVINWFMSFGPEIKLNTSQQGRNQAV | failed |
| MGGDKIDLYKRFSILFCTIFLLLILQGTVAAESNYTVDYSTYLGDKVVDEARDVYVDDSGYIYVTGSTHVNGSKDVFVTKFNVTREVIYHTILTDTSGDDWGHRIVADGDGYAYVVGEINHDGLKVADAFISKIDPSGKEVKRVYIGGSGYDVAKGLAIDYEGNIYVSGYTISTVLNVSELGGGTARVPGTNPNATPLTDWTYHGGYDAFLARFDQDLNPVNLRYFGGSWDDYCQGIAIDYAGNIYITGYTYSDDFPVTFDAISGDKRGTTDIFLSRFTPDLNCDYSTYLGGSGPDFCYSIISRDSRIYLAGKTNSSDFPVTPNAYQKTRNGSSDGFIMVFNDYSVEYSTYLGGRGDDSINDITQDILGNLYLTGWTGSDNFPLTPGAYDSSLSGVDAFVMKFSIPKGVLYSSYLGGIEADQGYGVAVDRYQNIYVAGKTWSSNFTVTPDACKKNLTGLSDGFLTRFTPFIISNISVTPLNGTGPLTVTLRGNITNCGDSTGWYRLDLYINGYRTAGKWVEVGSLETEPFEFEYTLRNSRAYSVGVNNFPPATVRVFLGPLIIPENLRVTPSGGQEPLKVNVTADLVNYGDLPDSYTAELYIDGVLLDSRNVTVNASSRTTVSFNRTLAAGLYEITINDLEPELVYVMEGEKFYIENFTLTPQSGAAPLTVTVSAMITNIDSNPRSYTATIYVNGVPDHTKVLNIPGESTVPFSTSILLPDRGLYTISLNNNVSGTVRVLSEANFTLSNVTVSPVEGKSPLNVTVTAIVRNNGDLAGDFAVTLYLDDVAWETRTVSVPGKSSVLVSFKKELAFPGEYRLRLNSGTDVTIRVLEPDPTITGFNVTPVTGPAPLSVRASLNVTNPHDLVIGFTARLMVDGVVVQENIVSLSPGETREIAMGTLLTPGNHTVGINEFSKIVRVLRPASITLSDLRVTPSSGFSPLTITATATARNTGEVDGNYTAVLYINGLAVDEKNVTVGAGRSVQVAFNHTIENAGIYLAGIGSLTPLDVRVLSEPAISNLSATPLTGVSPHRIIVTALVSTTEEGSGNYTAGLYIDGVNVQNRTVRVTGPGSVLVSFTADISEPGEHQVTVNSLSPVTVRVLRPATFIVDSLTVSPSTGVIPFRVNASVRVTNIGDIAGNYTARLYIDGVNVQNRTVNVPAGGDVTVSFTYNITQRGNHTVWIDNPPGINVNALKPATLEIRSFSVTPGSAVGSVNANVSAEIENSGDLEGEFSIPFYLNGSLIRNETIRLGPGERGNINFQQYLSGPGVYTFSLGNLRNSTVYVNPARRKYSFTFRNTGKYTTTVTYYVTVYSSTGAKLGYRTFKFTLKPGRSYSATIGYYPYDARIVTTRKIYNPSRYTRTIKLSETFRADTLSATLNYSNTIRGYRYVYIKKTFRAVNMRITVT | failed |
| MGGEASPRSLQDWRHVHNTIIPAHVLSLDDVRERAGRNRLEVAYLDDVLVGCSTVRPPADAPTPDAPATATVIARVLAAHRGRGFGGEMYERGLKHARALGAQVIETVVLSSNPDGLRFALKHGFAETERYLLPGDTVPWIDLRLSV | failed |
| MGGGEVKMMSLLEEMKGIYSKKGGKVKPFEKFEGELKEGYRFEYEKKLCEIDVAMFGLISGDLNPVHFDEDFASKTRFGGRVVHGMLTTSLVSAAVARLPGTVVLLEQSFRYTSPVRIGDVVRVEGVVSGVEKNRYTIDVKCYTGDKVVAEGVVKVLIW | not failed |
| MGGITITAVISNRDKVTFGEVADHYHSNKLIFGLKYFKNWVLERVAAWFPIPSWRAKFHKMRGVNLGKNVYVGYDVVFDRLHPEMITVGDYSEIGDRCILSAHSRGSLTTRQAYPRTIEPIKIGCGVSVNPGCIITQGVEIGDNSIIGIGSVVTRDISPNSLALGYPARVIKKLDGVGELQTSFNDT | failed |
| MGGRIASLLLDELHASTTVAAGVCLGYPFHPLGKPAQLRTHHLIDLSAPCLIFQGERDAMGRQDEVEVYSMSSAVTLQWIPDGDHSFSPRKRSGRTEEQNLCLAVQHVHSFLDSV | failed |
| MGHHHHHHSHGIVPGSVVLMAGEPGVGKSTLLLEVASRWASMKEGDGTRTALYVTAEESAGQVRLRAERTAAVKDTLYLAAESNLDVVFGHVNQVKPSLLIVDS | failed |
| MGHHHHHHSHGYLLKPEFMRRPDKSFDPFTEVIVDGIVANALRVKVISGQFLSDRKVGIYVEVDMFGLPVDTRRKYRTRTSQGNSFNPVWDEEPFDFPKVVLPTLASLRIAAFEEGGKFVGHRILPVSAIRSGYHYVCLRNEANQPLCLPALLIYTEASDYIPDDHQDYAEALINPIKHVSLMDQRARQLAALIG | failed |
| MGHHHHHHSHMACYIYQLPSWVLDDLCRNMDALSEWDWMEFASYVITDLTQLRKIKSMERVQGVSITRELLWWWGMRQATVQQLVDLLCRLELYRAAQIILNWKPAPEIRCPIPAFPDSVK | failed |
| MGHHHHHHSHMADVEDGEETCALASHSGSSGSKSGGDKMFSLKKWNAVAMWSWDVECDTCAICRVQVMDACLRCQAENKQEDCVVVWGECNHSFHNCCMSLWVKQNNRCPLCQQDWVVQRIGK | failed |
| MGHHHHHHSHMAGPSNVPAFLTKLWTLVSDPDTDALICWSPSGNSFHVFDQGQFAKEVLPKYFKHNNMASFVRQLNMYGFRKVVHIEQGGLVKPERDDTEFQHPCFLRGQEQLLENIKRKVTSVS | not failed |
| MGHHHHHHSHMAILIAFMKQRRMGLNDFIQKIANNSYACKHPEVQSILKISQPQEPELMNANPSPPPSPSQQINLGPSSNPHAKPSDFHFL | failed |
| MGHHHHHHSHMARPLVPSSQKALLLELKGLQEEPVEGFRVTLVDEGDLYNWEVAIFGPPNTYYEGGYFKARLKFPIDYPYSPPAFRFLTKMWHPNIYETGDVCISILHPPVDDPQSGELPSERWNPTQNVRTILLSVISLLNEPNTFSPANVDASVMYRKWKESKGKDREYTDIIRKQVLGTKVDAERDGVKVPTTLAEYCVKTKAPAPDEGSDLFYDDYYEDGEVEEEADSCFGDDEDDSGTEES | failed |
| MGHHHHHHSHMATGEEVPRTIIVTTRSQYGLPEDAIVYCNFNQLYKIDPSTLQMWANILKRVPNSVLWLLRFPAVGEPNIQQYAQNMGLPQNRIIFSPVAPKEEHVRRGQLADVCLDTPLCNG | failed |
| MGHHHHHHSHMATSSQYRQLLSDYGPPSLGYTQGTGNSQVPQSKYAELLAIIEELGKEIRPTYAGSKSAMERLKRGIIHARGLVRECLAETERNARS | not failed |
| MGHHHHHHSHMDTPENVLQMLEAHMQSYKGNDPLGEWERYIQWVEENFPENKEYLITLLEHLMKEFLDKKKYHNDPRFISYCLKFAEYNSDLHQFFEFLYNHGIGTLSSPLYIAWAGHLEAQGELQHASAVLQRGIQNQAEPREFLQQQYRLFQTRLTETHLPAQAR | failed |
| MGHHHHHHSHMHGWTWSVPKFMKRMKVPDYKDKAVFGVPLIVHVQRTGQPLPQSIQQALRYLRSNCLDQVGLFRKSGVKSRIHALRQMNENFPENVNYEDQSAYDVADMVKQFFRDLPEPLFTNKLSETFLHIYQYVSKEQRLQAVQAAILLLADENREVLQTLLCFLNDVVNLVEENQMTPMNLAVCLAPSLFHLNLL | failed |
| MGHHHHHHSHMKKDPTLQQAHDTMRFFRRGGSLRMLLDDDVTQPLNTVYRYAMQLMEVKEFAGAARLFQLLTIYDAWSFDYWFRLGECCQAQKHWGEAIYAYGRAAQIKIDAPQAPWAAAECYLACDNVCYAIKALKAVVRICGEVSEHQILRLRAEKMLQQLSDRS | failed |
| MGHHHHHHSHMNSTECTLILTEGDSAKTLAVSGLGVVGRDKYGVFPLRGKILNVREASHKQIMENAEINNIIKIVGLQYKKNYEDEDSLKTLRYGKIMIMTDQDQDGSHIKGLLINFIHHNWPSLLRHRFLEEFITPIVKVSKNKQEMAFYSLPEFEEWKSSTPNHKKWKVKYYKGLGTSTSKEAKEYFADMKRHRIQFKYSGPEDDAAISLAFSKKQIDDRKEWLTNFMEDR | failed |
| MGHHHHHHSHMPLVKRNIDPRHLCHTALPRGIKNELECVTNISLANIIRQLSSLSKYAEDIFGELFNEAHSFSFRVNSLQERVDRLSVSVTQLDPKEEELSLQDITMRKAFRSSTIQDQQLFDRKTLPIPLQETYDVCEQPPPLNILT | not failed |
| MGHHHHHHSHMQFFLPDATATHQFGVLLGQRLLASSTLLLEGDLGSGKTTLTQGIAQGLGIPDVVASPTFTLVCEYSEGRLPLYHFDLYRLEAPDVARLLPELYWEGVEFEPGLVVIEWPERLPYRPAAYWSLVLTPSLELEGRQLVLTPVNQDPTTVANLEVQLAAQFRARPATAES | not failed |
